“And” between values parts separate entries of the source, which are not always exact repeats. Equal entries are not always repeated.
How the values were obtained:
[1] = biological target: T1, ErbB4 (Rattus norvegicus, UniProt Q62956); assay: In vitro phosphorylation of Akt in neonatal rat cardiomyocytes; assay type: cell-based; conditions: for EC50: Akt (Serine 473) phosphorylation, neonatal rat cardiomyocytes, 15 minutes treatment, read-out: Cardiomyocyte (CM) (ErbB4) Avg EC50; for Selectivity SC/CM: ratio of EC50s Schwann cells/cardiomyocytes; for CM % Agonism AVG: top value of the Akt phosphorylation data points in cardiomyocytes, wild-type control 100
T1 construct: forming the ErbB2/ErbB4 complex in cardiomyocytes and the ErbB2/ErbB3 complex in Schwann cells; endogenous in cells; host or cells: primary neonatal rat cardiomyocytes (Sprague Dawley pups, 0 to 4 days old)
Description: (§1) In Vitro Phosphorylation of Akt in Neonatal Rat Cardiomyocytes and Rat Schwann Cells by Neuregulin Variants
(§2) Specificity of neuregulin variants towards cardiomyocytes (ErbB4) versus Schwann cells (ErbB3) was tested by measuring Akt activity generated by formation of the ErbB2/ErbB4 and ErbB2/ErbB3 complexes. Upon activation by neuregulin, the ErbB4 and ErbB3 receptors dimerize preferentially with the ErbB2 co-receptor, forming the ErbB2/ErbB4 complex in cardiomyocytes and the ErbB2/ErbB3 complex in Schwann cells, both of which signal through the Akt pathway. Neonatal rat cardiomyocytes were isolated from hearts of Sprague Dawley rat pups at 0 to 4 days old according to manufacturer's protocol using the Neomyt kit and plated on Surecoat plates in NS media containing serum (all from Cellultron Life Technologies, Baltimore, MD). Rat Schwann cells were plated in Poly-D-Lysine coated plates with Dulbecco's modified Eagle's media (DMEM) supplemented with fetal bovine serum (Thermo Fisher) and forskolin (Millipore Sigma).
(§3) After a 24-hour incubation in a humidified incubator maintained at 37° C. and 5% CO2, cardiomyocytes and Schwann cells were washed with serum free media and incubated an additional 16 hours in DMEM supplemented with bovine serum albumin (Sigma). Both cell lines were then treated with titrations of the neuregulin variant molecules for 15 minutes, upon which cells were lysed in lysis buffer (Meso Scale Discovery (MSD)). For detection of Akt phosphorylation, lysates were added to the Multi-Spot 96-Well 4-Spot Phospho (Serine 473)/Total Akt plates (MSD), incubated according to the manufacturer's protocol and read in the SECTOR Imager 6000 (MSD). For both cell assays, the percent phosphorylation of Akt was calculated by multiplying the phospho Akt signal by 2, then dividing by the phospho Akt signal added to the total Akt signal and then multiplying by 100. The phosphorylation of Akt data points were fitted using a log (agonist) versus response, variable slope (4 parameters) analysis in GraphPad Prism to generate EC50 curves. The CM % agonism reflect the top value of the data points.

[2] = biological target: T2, ErbB3 (Rattus norvegicus, UniProt Q62799); assay: In vitro phosphorylation of Akt in rat Schwann cells; assay type: cell-based; conditions: Akt (Serine 473) phosphorylation, 15 minutes treatment, read-out: Schwann cells (SC) (ErbB3) Avg EC50
T2 construct: forming the ErbB2/ErbB4 complex in cardiomyocytes and the ErbB2/ErbB3 complex in Schwann cells; endogenous in cells; host or cells: rat Schwann cells
Description: as §1, §2, §3

T1 sequence (Q62956 26-1308): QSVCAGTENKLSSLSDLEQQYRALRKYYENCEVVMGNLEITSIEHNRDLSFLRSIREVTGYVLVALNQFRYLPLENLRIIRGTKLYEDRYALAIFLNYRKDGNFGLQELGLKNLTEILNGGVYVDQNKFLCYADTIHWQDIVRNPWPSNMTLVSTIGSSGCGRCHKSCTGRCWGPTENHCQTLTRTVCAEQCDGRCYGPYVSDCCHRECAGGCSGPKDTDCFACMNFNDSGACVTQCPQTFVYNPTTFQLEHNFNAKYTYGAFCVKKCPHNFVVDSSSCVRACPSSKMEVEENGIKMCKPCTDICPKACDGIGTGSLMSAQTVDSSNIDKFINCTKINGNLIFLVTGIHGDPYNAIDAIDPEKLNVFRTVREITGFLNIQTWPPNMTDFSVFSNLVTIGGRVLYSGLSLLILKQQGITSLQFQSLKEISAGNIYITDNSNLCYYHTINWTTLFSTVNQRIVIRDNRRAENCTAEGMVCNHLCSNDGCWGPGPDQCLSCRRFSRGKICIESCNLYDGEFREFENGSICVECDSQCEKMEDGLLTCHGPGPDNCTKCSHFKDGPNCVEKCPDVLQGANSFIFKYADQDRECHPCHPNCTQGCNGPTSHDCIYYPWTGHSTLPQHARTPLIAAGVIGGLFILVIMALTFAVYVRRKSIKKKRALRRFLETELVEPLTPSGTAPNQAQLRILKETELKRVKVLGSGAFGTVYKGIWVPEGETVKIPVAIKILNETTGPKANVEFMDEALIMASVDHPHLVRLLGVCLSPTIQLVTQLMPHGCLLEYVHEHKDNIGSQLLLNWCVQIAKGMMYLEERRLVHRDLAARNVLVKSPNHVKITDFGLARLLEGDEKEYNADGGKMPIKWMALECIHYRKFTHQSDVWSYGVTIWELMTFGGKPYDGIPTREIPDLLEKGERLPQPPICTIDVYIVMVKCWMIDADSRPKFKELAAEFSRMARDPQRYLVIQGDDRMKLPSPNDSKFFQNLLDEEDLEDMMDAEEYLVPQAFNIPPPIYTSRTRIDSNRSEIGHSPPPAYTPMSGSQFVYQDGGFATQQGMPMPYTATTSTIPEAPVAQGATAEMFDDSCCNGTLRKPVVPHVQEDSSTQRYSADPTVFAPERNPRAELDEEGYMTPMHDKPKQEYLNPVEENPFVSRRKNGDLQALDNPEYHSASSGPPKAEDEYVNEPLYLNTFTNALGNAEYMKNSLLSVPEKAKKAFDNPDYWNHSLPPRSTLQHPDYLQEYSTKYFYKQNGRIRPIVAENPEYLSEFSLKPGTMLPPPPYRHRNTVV
T1 sequence (P06494 23-1257 partner): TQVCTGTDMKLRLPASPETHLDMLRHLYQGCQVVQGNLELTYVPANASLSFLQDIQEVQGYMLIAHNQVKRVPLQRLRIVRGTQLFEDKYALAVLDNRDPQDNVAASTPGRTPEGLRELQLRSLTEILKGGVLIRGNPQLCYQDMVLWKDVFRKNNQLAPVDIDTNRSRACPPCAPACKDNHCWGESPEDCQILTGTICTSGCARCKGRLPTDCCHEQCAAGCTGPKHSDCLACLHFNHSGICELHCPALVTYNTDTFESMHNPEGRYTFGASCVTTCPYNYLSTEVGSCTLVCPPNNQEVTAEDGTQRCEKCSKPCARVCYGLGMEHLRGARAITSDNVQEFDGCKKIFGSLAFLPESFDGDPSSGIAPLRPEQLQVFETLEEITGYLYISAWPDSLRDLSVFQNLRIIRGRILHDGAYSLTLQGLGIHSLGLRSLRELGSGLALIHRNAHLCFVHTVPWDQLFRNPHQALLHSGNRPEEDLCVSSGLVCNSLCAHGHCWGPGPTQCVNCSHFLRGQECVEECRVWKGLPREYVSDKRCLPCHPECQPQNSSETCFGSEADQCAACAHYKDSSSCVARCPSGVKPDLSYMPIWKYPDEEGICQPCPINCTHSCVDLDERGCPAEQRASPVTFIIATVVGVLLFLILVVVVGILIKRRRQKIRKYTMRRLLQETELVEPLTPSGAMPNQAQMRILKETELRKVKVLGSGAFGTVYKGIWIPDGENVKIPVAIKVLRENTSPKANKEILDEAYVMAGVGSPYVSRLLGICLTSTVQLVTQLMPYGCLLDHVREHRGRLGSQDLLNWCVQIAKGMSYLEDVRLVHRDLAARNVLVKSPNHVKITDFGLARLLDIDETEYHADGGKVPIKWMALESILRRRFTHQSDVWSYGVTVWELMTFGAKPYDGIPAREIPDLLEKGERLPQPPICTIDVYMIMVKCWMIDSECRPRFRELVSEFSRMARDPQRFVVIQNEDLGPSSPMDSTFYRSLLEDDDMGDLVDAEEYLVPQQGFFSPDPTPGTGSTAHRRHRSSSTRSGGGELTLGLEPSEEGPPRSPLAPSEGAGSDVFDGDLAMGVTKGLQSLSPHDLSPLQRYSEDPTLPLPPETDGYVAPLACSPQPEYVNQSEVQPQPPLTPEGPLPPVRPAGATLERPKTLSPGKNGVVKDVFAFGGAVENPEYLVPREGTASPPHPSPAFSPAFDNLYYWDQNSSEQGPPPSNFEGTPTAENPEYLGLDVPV
T2 sequence (Q62799 20-1339): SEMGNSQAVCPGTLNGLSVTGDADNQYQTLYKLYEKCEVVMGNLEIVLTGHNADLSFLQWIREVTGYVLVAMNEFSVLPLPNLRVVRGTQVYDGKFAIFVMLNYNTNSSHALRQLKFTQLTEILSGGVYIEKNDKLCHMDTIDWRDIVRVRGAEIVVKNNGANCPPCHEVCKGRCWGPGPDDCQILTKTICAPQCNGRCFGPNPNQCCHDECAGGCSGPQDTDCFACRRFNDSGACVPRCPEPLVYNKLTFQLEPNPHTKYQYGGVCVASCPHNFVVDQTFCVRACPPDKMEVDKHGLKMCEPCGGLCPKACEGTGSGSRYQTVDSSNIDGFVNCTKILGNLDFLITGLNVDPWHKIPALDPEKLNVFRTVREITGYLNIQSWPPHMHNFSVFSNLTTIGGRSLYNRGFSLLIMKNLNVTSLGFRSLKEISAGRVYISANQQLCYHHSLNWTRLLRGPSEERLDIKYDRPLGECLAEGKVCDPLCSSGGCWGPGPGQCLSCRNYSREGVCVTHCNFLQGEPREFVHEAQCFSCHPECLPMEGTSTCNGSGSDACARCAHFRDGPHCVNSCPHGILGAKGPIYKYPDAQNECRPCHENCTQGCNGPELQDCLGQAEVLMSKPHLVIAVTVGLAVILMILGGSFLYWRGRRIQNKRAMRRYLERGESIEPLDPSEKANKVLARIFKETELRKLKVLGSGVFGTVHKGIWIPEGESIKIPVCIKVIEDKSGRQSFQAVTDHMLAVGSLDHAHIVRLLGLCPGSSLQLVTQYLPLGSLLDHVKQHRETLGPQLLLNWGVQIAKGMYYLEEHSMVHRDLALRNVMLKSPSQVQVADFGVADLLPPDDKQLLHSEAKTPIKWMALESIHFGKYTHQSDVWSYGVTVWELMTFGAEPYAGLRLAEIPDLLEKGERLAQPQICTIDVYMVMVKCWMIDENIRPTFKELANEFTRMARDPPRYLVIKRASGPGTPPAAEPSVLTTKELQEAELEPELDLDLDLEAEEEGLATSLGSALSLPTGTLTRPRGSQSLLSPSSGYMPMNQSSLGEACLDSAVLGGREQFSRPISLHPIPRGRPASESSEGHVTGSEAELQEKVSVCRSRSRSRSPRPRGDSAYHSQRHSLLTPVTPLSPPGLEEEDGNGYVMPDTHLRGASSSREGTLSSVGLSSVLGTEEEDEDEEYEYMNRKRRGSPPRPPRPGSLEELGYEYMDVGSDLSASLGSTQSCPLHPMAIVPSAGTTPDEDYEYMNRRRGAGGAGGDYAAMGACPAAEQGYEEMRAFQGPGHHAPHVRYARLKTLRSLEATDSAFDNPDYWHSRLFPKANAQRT
T2 sequence (P06494 23-1257 partner): as the sequence (P06494 23-1257 partner) above

Substance	EC50 [1]	Selectivity SC/CM [1]	CM % Agonism AVG [1]	EC50 [2]
huNRG1(S177-F229)(NRGE1D) (E47S_D48S_F49E_M50L) huIgG1z SELF2 Fc: Fc fusion of NRG1 variant SEQ ID NO:128	0.37 nM	>10000	86.3%	10000 nM
huNRG1(S177-Q237)(wt)::GG::huFcSEFL2 (Pb): Fc fusion of wild-type NRG1 fragment S177-Q237 [reference compound]	–	0.4 and 0.3	Full	0.112 nM and 0.15 nM
huNRG1(S177-F229)(wt)::3x(G4Q)::huFcSEFL2 (Pb): Fc fusion of wild-type NRG1 fragment S177-F229 [reference compound]	0.34 nM	0.3	–	–
huNRG1(S177-F229)(NRGE1D) (E47T_D48S_F49L_M50L) hnIgG1z SELF2 Fc: Fc fusion of NRG1 variant SEQ ID NO:129	0.39 nM	>10000	79.5%	10000 nM
huNRG1(S177-Q237)(wt)::3x(G4Q)::huFcSEFL2 (Pb): Fc fusion of wild-type NRG1 fragment S177-Q237 [reference compound]	0.21 nM	0.3	–	0.07 nM

Further lines, results first:

EC50 [1]	Selectivity SC/CM [1]	CM % Agonism AVG [1]	EC50 [2]	Substance
0.19 nM	>10000	76%	10000 nM	huNRG1(S177-F229)(NRGE1C) (E47S_D48T_F49R_M50V) huIgG1z SELF2 Fc: Fc fusion of NRG1 variant SEQ ID NO:123
0.15 nM	62.2	88.5%	9.33 nM	huNRG1(S177-F229)(NRGE1D) (E47K_D48L_F49D_M50I) huIgG1z SELF2 Fc: Fc fusion of NRG1 variant SEQ ID NO:127
0.084 nM	0.2643	92.6%	0.0222 nM	huNRG1(S177-S228)(wt)((G4E)2:G4)::huFcSEFL2 (Pb): Fc fusion of wild-type NRG1 fragment S177-S228 [reference compound]
